Results taken from paper PMC9935876, “Structure of the planar cell polarity cadherins Fat4 and Dachsous1” (Nature Communications, 2023).
Several values for one entry are separate records, joined by “and”; a condition that tells them apart may be missing. Identical values can stand only once. Each block holds one molecule with its values, some of them ahead of it.

Key:
[1] = target: Phosphorylated Drosophila Ft(EC1-4) (Drosophila) (UniProt P33450); assay: ITC; MicroCal ITC200; fly Ft(EC1-4) ~50 µM and Ds(EC1-4) ~300 µM, unmodified or phosphorylated with Fj; same conditions as for the human proteins (20 °C); fitted with one set of sites; two independent experiments
Sequence of Phosphorylated Drosophila Ft(EC1-4) (Drosophila) (P33450 36-5147): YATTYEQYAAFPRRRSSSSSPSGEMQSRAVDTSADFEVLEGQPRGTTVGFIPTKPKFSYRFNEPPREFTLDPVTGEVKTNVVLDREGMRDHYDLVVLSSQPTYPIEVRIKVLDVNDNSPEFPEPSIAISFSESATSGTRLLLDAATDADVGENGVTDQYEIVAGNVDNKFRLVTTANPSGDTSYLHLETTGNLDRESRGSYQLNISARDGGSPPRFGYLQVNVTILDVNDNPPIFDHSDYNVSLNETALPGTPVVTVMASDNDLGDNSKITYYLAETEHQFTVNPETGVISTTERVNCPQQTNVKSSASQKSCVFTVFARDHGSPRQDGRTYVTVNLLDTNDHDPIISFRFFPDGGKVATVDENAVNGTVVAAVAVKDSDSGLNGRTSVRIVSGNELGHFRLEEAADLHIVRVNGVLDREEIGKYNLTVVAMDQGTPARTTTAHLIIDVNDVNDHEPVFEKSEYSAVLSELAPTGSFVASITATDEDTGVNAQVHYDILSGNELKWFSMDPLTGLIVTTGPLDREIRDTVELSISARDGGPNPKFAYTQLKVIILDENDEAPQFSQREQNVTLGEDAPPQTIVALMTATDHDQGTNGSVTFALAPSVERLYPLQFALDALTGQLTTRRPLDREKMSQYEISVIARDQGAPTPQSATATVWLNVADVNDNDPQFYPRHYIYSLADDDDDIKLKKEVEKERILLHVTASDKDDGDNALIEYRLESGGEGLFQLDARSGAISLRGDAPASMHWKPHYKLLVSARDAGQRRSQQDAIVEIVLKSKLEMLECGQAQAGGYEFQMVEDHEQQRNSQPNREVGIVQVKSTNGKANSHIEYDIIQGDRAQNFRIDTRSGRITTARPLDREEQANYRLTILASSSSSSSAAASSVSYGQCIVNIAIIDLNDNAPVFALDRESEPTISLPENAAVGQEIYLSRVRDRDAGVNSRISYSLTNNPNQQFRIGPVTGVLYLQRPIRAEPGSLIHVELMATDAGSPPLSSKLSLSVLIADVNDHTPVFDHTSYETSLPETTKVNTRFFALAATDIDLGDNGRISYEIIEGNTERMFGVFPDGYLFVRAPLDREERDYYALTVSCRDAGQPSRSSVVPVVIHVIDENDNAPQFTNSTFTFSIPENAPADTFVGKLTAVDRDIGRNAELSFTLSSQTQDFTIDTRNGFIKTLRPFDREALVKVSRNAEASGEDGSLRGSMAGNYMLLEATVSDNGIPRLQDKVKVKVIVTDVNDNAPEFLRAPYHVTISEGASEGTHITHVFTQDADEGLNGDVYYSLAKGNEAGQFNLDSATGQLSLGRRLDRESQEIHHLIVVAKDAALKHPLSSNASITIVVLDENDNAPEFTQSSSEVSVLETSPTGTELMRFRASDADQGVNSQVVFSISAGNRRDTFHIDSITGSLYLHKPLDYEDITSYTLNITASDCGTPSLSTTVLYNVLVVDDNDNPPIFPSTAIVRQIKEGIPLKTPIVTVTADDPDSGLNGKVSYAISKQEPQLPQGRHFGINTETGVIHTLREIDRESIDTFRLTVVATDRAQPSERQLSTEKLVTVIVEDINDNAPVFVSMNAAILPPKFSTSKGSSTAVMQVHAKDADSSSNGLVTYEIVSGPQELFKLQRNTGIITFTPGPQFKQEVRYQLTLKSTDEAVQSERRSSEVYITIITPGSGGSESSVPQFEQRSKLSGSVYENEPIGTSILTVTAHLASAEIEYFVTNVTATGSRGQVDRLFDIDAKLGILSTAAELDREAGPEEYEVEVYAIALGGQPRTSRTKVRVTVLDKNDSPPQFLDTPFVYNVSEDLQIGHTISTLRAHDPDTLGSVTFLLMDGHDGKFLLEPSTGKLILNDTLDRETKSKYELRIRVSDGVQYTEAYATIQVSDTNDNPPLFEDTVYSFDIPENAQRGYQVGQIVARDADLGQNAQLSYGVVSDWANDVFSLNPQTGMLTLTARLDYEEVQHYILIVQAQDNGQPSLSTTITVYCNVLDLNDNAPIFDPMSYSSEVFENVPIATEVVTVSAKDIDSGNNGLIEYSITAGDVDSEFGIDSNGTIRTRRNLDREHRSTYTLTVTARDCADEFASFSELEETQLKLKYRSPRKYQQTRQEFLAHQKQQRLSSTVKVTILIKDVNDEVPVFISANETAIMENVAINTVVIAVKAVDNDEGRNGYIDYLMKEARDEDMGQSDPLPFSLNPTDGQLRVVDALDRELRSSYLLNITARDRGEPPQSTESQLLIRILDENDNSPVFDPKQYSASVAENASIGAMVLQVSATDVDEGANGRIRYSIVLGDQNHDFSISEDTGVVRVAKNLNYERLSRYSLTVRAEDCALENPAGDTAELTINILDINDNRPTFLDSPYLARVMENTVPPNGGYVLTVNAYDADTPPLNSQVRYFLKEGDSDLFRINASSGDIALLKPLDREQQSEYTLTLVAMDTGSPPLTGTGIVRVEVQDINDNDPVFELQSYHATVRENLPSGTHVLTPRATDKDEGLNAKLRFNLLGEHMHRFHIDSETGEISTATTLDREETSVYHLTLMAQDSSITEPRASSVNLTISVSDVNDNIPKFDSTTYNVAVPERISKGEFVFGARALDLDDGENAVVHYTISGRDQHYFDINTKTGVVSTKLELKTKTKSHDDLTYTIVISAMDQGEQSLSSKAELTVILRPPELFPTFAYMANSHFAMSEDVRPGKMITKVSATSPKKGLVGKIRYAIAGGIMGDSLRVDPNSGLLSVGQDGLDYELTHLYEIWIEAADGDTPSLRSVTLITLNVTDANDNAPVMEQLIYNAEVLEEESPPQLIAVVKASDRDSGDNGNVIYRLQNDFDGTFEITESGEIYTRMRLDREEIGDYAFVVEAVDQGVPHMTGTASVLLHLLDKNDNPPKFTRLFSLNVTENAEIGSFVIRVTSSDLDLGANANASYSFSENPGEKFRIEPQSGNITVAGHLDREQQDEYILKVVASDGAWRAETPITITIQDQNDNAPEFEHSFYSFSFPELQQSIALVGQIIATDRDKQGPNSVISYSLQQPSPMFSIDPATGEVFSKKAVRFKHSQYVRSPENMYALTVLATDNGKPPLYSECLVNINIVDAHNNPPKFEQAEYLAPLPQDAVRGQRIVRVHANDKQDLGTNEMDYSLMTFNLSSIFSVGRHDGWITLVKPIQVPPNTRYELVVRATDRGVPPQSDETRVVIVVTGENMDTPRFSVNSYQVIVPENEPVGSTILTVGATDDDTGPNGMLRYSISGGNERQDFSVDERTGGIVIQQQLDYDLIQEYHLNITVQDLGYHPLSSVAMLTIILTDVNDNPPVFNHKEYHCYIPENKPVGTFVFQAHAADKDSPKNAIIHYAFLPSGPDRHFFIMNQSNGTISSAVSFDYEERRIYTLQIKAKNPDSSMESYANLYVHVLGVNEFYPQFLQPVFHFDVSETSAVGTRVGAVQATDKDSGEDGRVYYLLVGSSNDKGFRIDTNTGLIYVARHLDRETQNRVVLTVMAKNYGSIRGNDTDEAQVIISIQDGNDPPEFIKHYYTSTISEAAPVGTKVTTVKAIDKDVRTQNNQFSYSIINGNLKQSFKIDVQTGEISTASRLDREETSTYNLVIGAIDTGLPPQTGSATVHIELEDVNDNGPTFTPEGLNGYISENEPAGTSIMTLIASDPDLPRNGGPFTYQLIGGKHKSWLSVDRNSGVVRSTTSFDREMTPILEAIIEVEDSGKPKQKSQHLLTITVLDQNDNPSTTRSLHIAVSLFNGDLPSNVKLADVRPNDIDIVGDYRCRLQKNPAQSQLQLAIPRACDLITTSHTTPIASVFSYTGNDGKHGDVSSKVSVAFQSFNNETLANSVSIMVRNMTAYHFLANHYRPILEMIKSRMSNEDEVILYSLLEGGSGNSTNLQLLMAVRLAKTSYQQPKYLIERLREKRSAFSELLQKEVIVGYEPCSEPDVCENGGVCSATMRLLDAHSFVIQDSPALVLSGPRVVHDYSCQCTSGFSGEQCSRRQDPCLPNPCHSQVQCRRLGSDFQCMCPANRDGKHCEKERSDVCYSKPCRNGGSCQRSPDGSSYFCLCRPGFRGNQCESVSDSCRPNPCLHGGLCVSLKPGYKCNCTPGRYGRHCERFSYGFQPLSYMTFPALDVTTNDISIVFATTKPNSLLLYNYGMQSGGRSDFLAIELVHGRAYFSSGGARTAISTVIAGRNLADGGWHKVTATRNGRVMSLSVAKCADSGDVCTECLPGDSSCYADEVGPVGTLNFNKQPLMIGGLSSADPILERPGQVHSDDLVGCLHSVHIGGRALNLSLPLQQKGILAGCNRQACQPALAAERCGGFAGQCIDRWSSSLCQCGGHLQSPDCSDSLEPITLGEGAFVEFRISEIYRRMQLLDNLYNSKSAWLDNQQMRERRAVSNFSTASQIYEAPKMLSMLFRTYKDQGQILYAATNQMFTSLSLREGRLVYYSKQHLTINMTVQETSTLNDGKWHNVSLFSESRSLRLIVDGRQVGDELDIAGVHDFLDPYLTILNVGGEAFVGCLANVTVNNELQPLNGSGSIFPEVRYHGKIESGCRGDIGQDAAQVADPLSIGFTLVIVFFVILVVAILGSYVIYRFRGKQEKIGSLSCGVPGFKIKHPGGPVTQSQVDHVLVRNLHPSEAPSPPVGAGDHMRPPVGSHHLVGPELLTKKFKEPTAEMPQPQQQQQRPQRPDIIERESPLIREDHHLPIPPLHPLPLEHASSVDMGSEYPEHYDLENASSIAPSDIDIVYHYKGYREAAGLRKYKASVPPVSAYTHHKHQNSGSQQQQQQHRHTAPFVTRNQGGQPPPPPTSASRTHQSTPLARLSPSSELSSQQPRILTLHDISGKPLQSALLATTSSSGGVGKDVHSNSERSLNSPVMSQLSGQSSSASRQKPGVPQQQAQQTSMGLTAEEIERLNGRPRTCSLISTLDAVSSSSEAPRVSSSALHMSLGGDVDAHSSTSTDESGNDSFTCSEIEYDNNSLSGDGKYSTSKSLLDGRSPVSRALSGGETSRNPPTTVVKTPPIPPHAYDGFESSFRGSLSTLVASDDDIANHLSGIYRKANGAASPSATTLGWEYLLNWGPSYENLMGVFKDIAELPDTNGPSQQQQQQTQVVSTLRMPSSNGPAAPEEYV

[2] = target: Phosphorylated Drosophila Ft(EC1-4) (Drosophila) (UniProt P33450); assay: ITC; MicroCal ITC200; fly Ft(EC1-4) ~50 µM, fly Ds(EC1-4) ~300 µM; proteins phosphorylated with Fj as needed; 20 °C; one set of sites
[3] = target: Drosophila Ft(EC1–4), phosphorylated (Drosophila); assay: ITC; fly Ft(EC1–4) at ~50 μM and Ds(EC1–4) at ~300 μM, unmodified or phosphorylated with Fj; same conditions as for the human proteins (20 °C); one set of sites
CDH23 EC1-EC2 = CDH23 EC1-EC2 (UniProt Q99PF4); settings: cited from earlier work
Human Fat4(EC1-4) = target: T1, Human Fat4(EC1-4) (human, UniProt Q6V0I7 43-475); assay: ITC; MicroCal ITC200; Fat4 constructs 30 µM in the sample cell, Dchs1 constructs 300 µM as titrants; 20 °C; one set of sites; settings: both partners purified
T1 construct: human Fat4, extracellular cadherin domains EC1-EC4, aa43-475; A 3C protease site stands between the protein and the C-terminal BAP-tag and His6; also called WT
T1 sequence: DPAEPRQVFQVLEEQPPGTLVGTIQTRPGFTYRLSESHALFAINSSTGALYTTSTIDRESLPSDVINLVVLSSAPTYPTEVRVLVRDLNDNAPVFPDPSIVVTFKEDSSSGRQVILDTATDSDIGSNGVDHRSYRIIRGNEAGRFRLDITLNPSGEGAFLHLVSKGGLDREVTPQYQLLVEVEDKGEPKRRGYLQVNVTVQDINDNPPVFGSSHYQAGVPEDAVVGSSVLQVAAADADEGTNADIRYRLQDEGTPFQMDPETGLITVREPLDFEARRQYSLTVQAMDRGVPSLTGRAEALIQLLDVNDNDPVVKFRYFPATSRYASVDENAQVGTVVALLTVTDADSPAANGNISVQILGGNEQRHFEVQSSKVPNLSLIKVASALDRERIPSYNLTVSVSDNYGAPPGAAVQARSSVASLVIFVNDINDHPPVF

Molecule: Drosophila Ds(EC1-4), unmodified (from UniProt Q24292 74-3556) (domain or fragment)
Kd [1]: 4.1 µM and 5.05 µM

Molecule: Phosphorylated Drosophila Ds(EC1-4) (from UniProt Q24292 74-3556) (domain or fragment)
Kd [1]: 13.6 µM and 11.4 µM
stoichiometry N [2]: 0.751 sites

Molecule: Drosophila Ds(EC1–4), phosphorylated (domain or fragment)
Kd [3]: 12.5 µM

Molecule: PCDH15 EC1-EC2 (from UniProt Q99PJ1)
Kd (CDH23 EC1-EC2): 2.9 µM

Other lines, results leading:

Kd [3]: 4.58 µM
Molecule: Drosophila Ds(EC1–4), unmodified (domain or fragment)

stoichiometry N [2]: 0.777 sites
Molecule: Drosophila Ds(EC1-4) (from UniProt Q24292 74-3556) (domain or fragment)

stoichiometry N (Human Fat4(EC1-4)): 0.978 ± 0.0137 sites
B1: Human Dchs1(EC1-3) (domain or fragment)
chain: DPQAGSLDLQIDEEQPAGTLIGDISAGLPAGTAAPLMYFISAQEGSGVGTDLAIDEHSGVVRTARVLDREQRDRYRFTAVTPDGATVEVTVRVADINDHAPAFPQARAALQVPEHTAFGTRYPLEPARDADAGRLGTQGYALSGDGAGETFRLETRPGPDGTPVPELVVTGELDRENRSHYMLQLEAYDGGSPPRRAQALLDVTLLDINDHAPAFNQSRYHAVVSESLAPGSPVLQVFASDADAGVNGAVTYEINRRQSEGDGPFSIDAHTGLLQLERPLDFEQRRVHELVVQARDGGAHPELGSAFVTVHVRDANDNQPSM
notes: human Dachsous1 (Dchs1), extracellular cadherin domains EC1-EC3, aa43-362; A 3C protease site stands between the protein and the C-terminal BAP-tag and His6
